± gives the standard deviation of the averaged measurements.
Tests used:
[1] = system: MCF7; assay: percentage of EdU-negative (G0-arrested) nuclei per well, 72 h; higher = more G0 arrest; conditions: reference: sequence is the full UniProt precursor, the tested protein was the secreted form or ectodomain
[2] = system: hTERT-HMEC; assay: as above; conditions: reference: sequence is the full UniProt precursor, the tested protein was the secreted form or ectodomain
[3] = protein concentration 0.0282857 µM
[4] = protein concentration 0.282857 µM
[5] = protein concentration 0.0225 µM
[6] = protein concentration 0.00857143 µM
[7] = protein concentration 0.0857143 µM
[8] = protein concentration 0.01547 µM
[9] = protein concentration 0.1547 µM
[10] = protein concentration 0.021325 µM
[11] = protein concentration 0.03125 µM
[12] = protein concentration 0.21325 µM
[13] = protein concentration 0.3125 µM
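Further: secreted proteins added to cultured cells, EdU pulse at the end, nuclei found by Hoechst imaging, EdU status from nuclear versus surrounding ring intensity ratio, PBS as neutral control.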

## MSSWSRQRPKSPGGIQPHVSRTLFLLLLLAASAWGVTLSPKDCQVFRSDHGSSISCQPPAEIPGYLPADTVHLAVEFFNLTHLPANLLQGASKLQELHLSSNGLESLSPEFLRPVPQLRVLDLTRNALTGLPPGLFQASATLDTLVLKENQLEVLEVSWLHGLKALGHLDLSGNRLRKLPPGLLANFTLLRTLDLGENQLETLPPDLLRGPLQLERLHLEGNKLQVLGKDLLLPQPDLRYLFLNGNKLARVAAGAFQGLRQLDMLDLSNNSLASVPEGLWASLGQPNWDMRDGFDISGNPWICDQNLSDLYRWLQAQKDKMFSQNDTRCAGPEAVKGQTLLAVAKSQ
[1]; [3]
  percentage of EdU-negative: 22.3 ± 2.4%
[1]; [4]
  percentage of EdU-negative: 25.7 ± 1.4%
[2]; [3]
  percentage of EdU-negative: 4.97 ± 0.88%
[2]; [4]
  percentage of EdU-negative: 6.814 ± 0.037%

## MSVMKPCLMTIAILMILAQKTPGGLFRSHNGKSREPWNPCELYQGMCRNACREYEIQYLTCPNDQKCCLKLSVKITSSKNVKEDYDSNSNLSVTNSSSYSHI [Q30KQ4]
[1]; [5]
  percentage of EdU-negative: 25.4 ± 1.7%
[1]; protein concentration 0.225 µM
  percentage of EdU-negative: 23.5 ± 1.3%
[2]; [5]
  percentage of EdU-negative: 5.55 ± 0.29%
[2]; protein concentration 0.225 µM
  percentage of EdU-negative: 5.56 ± 0.81%

## MSVPLLKIGVVLSTMAMITNWMSQTLPSLVGLNTTKLSAAGGGTLDRSTGVLPTNPEESWQVYSSAQDSEGRCICTVVAPQQTMCSRDARTKQLRQLLEKVQNMSQSIEVLDRRTQRDLQYVEKMENQMKGLESKFKQVEESHKQHLARQFKAIKAKMDELRPLIPVLEEYKADAKLVLQFKEEVQNLTSVLNELQEEIGAYDYDELQSRVSNLEERLRACMQKLACGKLTGISDPVTVKTSGSRFGSWMTDPLAPEGDNRVWYMDGYHNNRFVREYKSMVDFMNTDNFTSHRLPHPWSGTGQVVYNGSIYFNKFQSHIIIRFDLKTETILKTRSLDYAGYNNMYHYAWGGHSDIDLMVDESGLWAVYATNQNAGNIVVSRLDPVSLQTLQTWNTSYPKRSAGEAFIICGTLYVTNGYSGGTKVHYAYQTNASTYEYIDIPFQNKYSHISMLDYNPKDRALYAWNNGHQILYNVTLFHVIRSDEL
[1]; [6]
  percentage of EdU-negative: 25.5 ± 3.5%
[1]; [7]
  percentage of EdU-negative: 29.3 ± 2.1%
[2]; [6]
  percentage of EdU-negative: 4.93 ± 0.14%
[2]; [7]
  percentage of EdU-negative: 9.49 ± 1.4%

## MSWSLHPRNLILYFYALLFLSSTCVAYVATRDNCCILDERFGSYCPTTCGIADFLSTYQTKVDKDLQSLEDILHQVENKTSEVKQLIKAIQLTYNPDESSKPNMIDAATLKSRKMLEEIMKYEASILTHDSSIRYLQEIYNSNNQKIVNLKEKVAQLEAQCQEPCKDTVQIHDITGKDCQDIANKGAKQSGLYFIKPLKANQQFLVYCEIDGSGNGWTVFQKRLDGSVDFKKNWIQYKEGFGHLSPTGTTEFWLGNEKIHLISTQSAIPYALRVELEDWNGRTSTADYAMFKVGPEADKYRLTYAYFAGGDAGDAFDGFDFGDDPSDKFFTSHNGMQFSTWDNDNDKFEGNCAEQDGSGWWMNKCHAGHLNGVYYQGGTYSKASTPNGYDNGIIWATWKTRWYSMKKTTMKIIPFNRLTIGEGQQHHLGGAKQVRPEHPAETEYDSLYPEDDL
[1]; [8]
  percentage of EdU-negative: 24 ± 1.3%
[1]; [9]
  percentage of EdU-negative: 25 ± 2%
[2]; [8]
  percentage of EdU-negative: 5.07 ± 0.17%
[2]; [9]
  percentage of EdU-negative: 5.92 ± 0.15%

## MTALFLMSMLFGLTCGQAMSFCIPTEYTMHIERRECAYCLTINTTICAGYCMTRDINGKLFLPKYALSQDVCTYRDFIYRTVEIPGCPLHVAPYFSYPVALSCKCGKCNTDYSDCIHEAIKTNYCTKPQKSYLVGFSV
[1]; protein concentration 0.017 µM
  percentage of EdU-negative: 27.8 ± 3.8%
[1]; protein concentration 0.17 µM
  percentage of EdU-negative: 27.2 ± 1.9%
[2]; protein concentration 0.017 µM
  percentage of EdU-negative: 5.28 ± 0.69%
[2]; protein concentration 0.17 µM
  percentage of EdU-negative: 9.97 ± 1.1%

## MTAPGAAGRCPPTTWLGSLLLLVCLLASRSITEEVSEYCSHMIGSGHLQSLQRLIDSQMETSCQITFEFVDQEQLKDPVCYLKKAFLLVQDIMEDTMRFRDNTPNAIAIVQLQELSLRLKSCFTKDYEEHDKACVRTFYETPLQLLEKVKNVFNETKNLLDKDWNIFSKNCNNSFAECSSQDVVTKPDCNCLYPKAIPSSDPASVSPHQPLAPSMAPVAGLTWEDSEGTEGSSLLPGEQPLHTVDPGSAKQRPPRSTCQSFEPPETPVVKDSTIGGSPQPRPSVGAFNPGMEDILDSAMGTNWVPEEASGEASEIPVPQGTELSPSRPGGGSMQTEPARPSNFLSASSPLPASAKGQQPADVTGTALPRVGPVRPTGQDWNHTPQKTDHPSALLRDPPEPGSPRISSLRPQGLSNPSTLSAQPQLSRSHSSGSVLPLGELEGRRSTRDRRSPAEPEGGPASEGAARPLPRFNSVPLTDTGHERQSEGSFSPQLQESVFHLLVPSVILVLLAVGGLLFYRWRRRSHQEPQRADSPLEQPEGSPLTQDDRQVELPV
[1]; [10]
  percentage of EdU-negative: 21.9 ± 1.2%
[1]; [11]
  percentage of EdU-negative: 26.7 ± 0.3%
[1]; [12]
  percentage of EdU-negative: 27.6 ± 1.4%
[1]; [13]
  percentage of EdU-negative: 26 ± 0.57%
[2]; [10]
  percentage of EdU-negative: 5.8 ± 0.14%
[2]; [11]
  percentage of EdU-negative: 4.68 ± 0.61%
[2]; [12]
  percentage of EdU-negative: 6.92 ± 1.3%
[2]; [13]
  percentage of EdU-negative: 6.12 ± 1.1%

## MTARAWASWRSSALLLLLVPGYFPLSHPMTVAGPVGGSLSVQCRYEKEHRTLNKFWCRPPQILRCDKIVETKGSAGKRNGRVSIRDSPANLSFTVTLENLTEEDAGTYWCGVDTPWLRDFHDPIVEVEVSVFPAGTTTASSPQSSMGTSGPPTKLPVHTWPSVTRKDSPEPSPHPGSLFSNVRFLLLVLLELPLLLSMLGAVLWVNRPQRSSRSRQNWPKGENQ
[1]; [5]
  percentage of EdU-negative: 26.2 ± 3.7%
[1]; protein concentration 0.225 µM
  percentage of EdU-negative: 23.5 ± 0.75%
[2]; [5]
  percentage of EdU-negative: 5.08 ± 0.64%
[2]; protein concentration 0.225 µM
  percentage of EdU-negative: 12.4 ± 10%

Source: the supplement of paper PMC11316812
